Data as given in the supplement of paper PMC9170038.

Test system: MS2 coat protein
Assay: apparent KD of MS2 coat protein; designed switch direction (-1 OFF switch, 1 ON switch): 1; higher = weaker reporter binding
Summary of the method: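 Each step of the titration lasted 0.8–1.5 h at the lowest concentration and 10–20 min at the highest. The protein, SNAP-549-labelled MS2 coat protein, went from 0.7 or 1.5 nM doubling to 3 µM over RNA switches transcribed on Illumina chips by stalled E. coli RNA polymerase. Normalised cluster fluorescence was curve-fitted, and the per-design median over clusters is given as apparent KD.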

[1] = Eterna round: R95, input ligand: FMN 200 uM
[2] = Eterna round: R95, input ligand: microRNA oligo, concentration not stated
[3] = Eterna round: R95, input ligand: none
[4] = input ligand: microRNA oligo, concentration not stated

| Sequence | apparent KD of MS2 coat protein [1] | apparent KD of MS2 coat protein [2] | apparent KD of MS2 coat protein [3] | apparent KD of MS2 coat protein (input ligand: FMN 200 uM) | apparent KD of MS2 coat protein [4] | apparent KD of MS2 coat protein (input ligand: none) |
| --- | --- | --- | --- | --- | --- | --- |
| AAGUAACAUGAGGAUCACCCAUGUGAGGUGAGCGUAGGAUAUCGAGGAGGUAGGGUAGGUCGAGAAGGACGAGAAG [JR_SS1_Sub095] (puzzle: Same State 1) | 323 nM | 210 nM | 700 nM | – | – | – |
| CUGAGCAAGCAAGGAUAUCACGUCGAAUAGACGUGAGAAGGUGCUCCUUACAUGAGGAUCACCCAUGUAUAACAUGAAGCUCAG [SSNG1/10-A1] (Eterna round: R96, puzzle: Same State NG 1) | – | – | – | 254 nM | 869 nM | 1260 nM |
| GCGUUUAACGUAGGAUAUCGAGCUACAUGAGGAUCACCCAUGUCUUUGUAAAGUUUUUUUAAUUACGAGAAGGACGUUUUGCAU [JR_SSNG2_Sub072] (Eterna round: R96, puzzle: Same State NG 2) | – | – | – | 18.7 nM | 26.7 nM | 35.8 nM |
| AGUCCAGCCUGAGCUGGACAAAAGCAUGUACAUGAGGAUCACCCAUGUUCAUGUACAAGCUUUUUGCUCGUCUAAAG [Mat - hsa-mir-208a - Mod of JL - 66] (puzzle: Sensor for hsa-mir-208a) | 506 nM | 16.6 nM | 880 nM | – | – | – |
| UUGGUGUAGAUACAGGAUAUGUUGAUUGUAACAUGAGGAUCACCCAUGUAUCUAUGAGAUUAAAUGCAGAAGGGUGCACAUCACU [salish99_ss2_r3_090] (puzzle: Same State 2) | 209 nM | 92.9 nM | 276 nM | – | – | – |
| CUGAGCAGUCAAGGAUAUCACGUCGAUUAGACGUGAGAAGGUGAUCAUUACAUGAGGAUCACCCAUGUGUUACAUGGAGCUCAG [Brourd's SSNG1/1-A2 mod 5] (Eterna round: R96, puzzle: Same State NG 1) | – | – | – | 413 nM | 49.1 nM | 358 nM |
| CGGGUACAUGAGGAUCACCCAUGUUGGAGUAAUGCAGGAUAUGUGAGACGAGAAGAUAAAACAGAAGGGCAAGGAG [JR_SS!_Sub009] (puzzle: Same State 1) | 37.4 nM | 95 nM | 77.6 nM | – | – | – |
| UAGGGACAUGAGGAUCACCCAUGUGCCUCAUAUGGAGAAACUCAGGAUAUGCUGAGGAUCACCCGGCAGAAGGGAGAUUUGAGG (Eterna round: R96, puzzle: Same State NG 3) | – | – | – | 42.3 nM | 26.3 nM | 36.4 nM |
| UUAAUGAAGUAAGGAUAUACAUGAGGAAUUCUCGUAGAAGGUACUAUACAUGAGGAUCACCCAUGUGCCGGUCAGAAGACUGGA [Mat - Same State NG 1 - JL mod - D11] (Eterna round: R96, puzzle: Same State NG 1) | – | – | – | 454 nM | 302 nM | 415 nM |
| AUUAAACAUGAGGAUCACCCAUGUCAACAAAGUCGAGGAUAUGGGCAAAUAAAAUAAGAACCAGAAGGCGAAUUAU [salish99_ss1_r3_079] (puzzle: Same State 1) | 32.6 nM | 337 nM | 312 nM | – | – | – |
| GUAAAACAUGAGGAUCACCCAUGUAAUAUAAUGGGAGGAUAUCUGAUUUAAUUUAAUUUAAGAGAAGGCCUAAAUG [Mat - Same State 1 - Mod of Eli - D57] (puzzle: Same State 1) | 39.6 nM | 268 nM | 372 nM | – | – | – |
| AUAGUUUCCGAAGGAUAUGAUGAGGAUCACCCAUCAGAAGGUUGGCUAUUGGGCGGACAUGAGGAUCACCCAUGUCUUUCGGUU (Eterna round: R96, puzzle: Same State NG 1) | – | – | – | 84.7 nM | 76.8 nM | 101 nM |
| CGUCCAGCCUGAGCUGGACAAAAGCAUGUACAUGAGGAUCACCCAUGUUCAUGUACAAGCUUUUUGCUCGUCUUAUU [salish99_208a_r3_050] (puzzle: Sensor for hsa-mir-208a) | 681 nM | 16.1 nM | 739 nM | – | – | – |
| AGAUCAUGACGAGGAUAUGCCACAUGAGGAUCACCCAUGUAUGUGGUAGGACGCGUACGUCCAAAGCAGAAGGCGUCGUGAUCA [Mat - Same State NG 2 - JL mod - D36] (Eterna round: R96, puzzle: Same State NG 2) | – | – | – | 21.5 nM | 37.6 nM | 47.9 nM |
| CCGAAAGGAGUAGGAUAUGUAGGAUAUGCCUACAUGAGGAUCACCCAUGUUCGCAUGGCAGAAGGACAGAAGGACACGGAAACG [pwkr ssNG2 2FMN + 1F5.12] (Eterna round: R96, puzzle: Same State NG 2) | – | – | – | 101 nM | 113 nM | 293 nM |
| UCUUGGUUUUUGCUCGUUUUUUGUGUUGAACAUGAGGAUCACCCAUGUAUUGUACAGUCCGAUUUAAUAAUGGUCCG [JMF 57] (puzzle: Sensor for hsa-mir-208a) | 31.5 nM | 26 nM | 33.8 nM | – | – | – |
| GCUCGUAUCACAACCGACAUGAGGAUCACCCAUGUAUGUUGGUAGGAUAUCUAUAUUAAGGAUAUAGAGAAGGGCCGAACGAGC [SameState NG3 #13] (Eterna round: R96, puzzle: Same State NG 3) | – | – | – | 14.6 nM | 10.4 nM | 18.7 nM |
| ACAUGAGAGAAAGGAUAUGUUGUACCUACAUGUGACAUGAGGAUCACCCAUGUGGUAAGUAUGAGACAGAAGGUUCAGAUAUGU [Equivalence 32 - Jieux - Same State NG 2] (Eterna round: R96, puzzle: Same State NG 2) | – | – | – | 20.4 nM | 51.1 nM | 65.7 nM |
| GGAGCCAAGGCAGGAUAUUCAUAUUAAUAACACAUGAGGAUCACCCAUGUGGCCAGAAGGCCAUGGGAGAAGGGCCAUGGCUCG [Xeonanis - 13 mod10] (Eterna round: R96, puzzle: Same State NG 2) | – | – | – | 86.3 nM | 195 nM | 469 nM |
| GCCGCGUUUCGCGCCUACAUGAGGAUCACCCAUGUUUGUAGGCAGGAUAUCGUCCGCUCUGCGGGCGAGAAGGGCUGUUGUGGC [salish99_SSNG3_R04_022] (Eterna round: R96, puzzle: Same State NG 3) | – | – | – | 41.2 nM | 36.7 nM | 51.5 nM |
| CGGCGCUGUCGAGAGGAUAUGCGGUGACGGACAUGAGGAUCACCCAUGUUAGCGAUAGCGUUACGGUAGAAGGCUCUACAGUCGC [Soteed Omei mod 10] (Eterna round: R96, puzzle: Same State 2) | – | – | – | 19.1 nM | 125 nM | 217 nM |
| GGUAGGUUACUACCAAUCACAUGAGGAUCACCCAUGUUGUGGGAGGAUAUGGUACCUAUUUGGUACCAGAAGGCCUUAUUAAUU [Fiskers NG3ss - 11] (Eterna round: R96, puzzle: Same State NG 3) | – | – | – | 74.8 nM | 55.6 nM | 85.2 nM |
| GCCAACUCAUGAGGAUAUGGCACCUUAUUGGUGCCAGAAGGCAUGUCUAUUGACAUGAGGAUCACCCAUGUAUUAUAGUUGGCA [Fiskers NG1ss - 23] (Eterna round: R96, puzzle: Same State NG 1) | – | – | – | 83.9 nM | 192 nM | 859 nM |
| GAGUGGUGGAGAGGAUAUACAUUGUUAUUCACUGUAGAAGGUUCUAACAUGAGGAUCACCCAUGUAGGACUAUUCCUGAGUUUU [Parity 56 - Jieux - Same State NG 1] (Eterna round: R96, puzzle: Same State NG 1) | – | – | – | – | 8.92 nM | – |
| AGUCCAGCCUGAGCUGGACAAAAGCAUGUACAUGAGGAUCACCCAUGUCAUGUACAAGCUUUUUGCUCGUUUUAAUA [Zipper 49 - 14] (puzzle: Sensor for hsa-mir-208a) | 509 nM | 14 nM | 679 nM | – | – | – |
| GAAAAGCAGAGAGGAUAUGUCACUCAUGCCGUGACACAUGAGGAUCACCCAUGUUCAAUCCGGCCGCAGAAGGCUCCGCGAAAA [Eternabot solution 25] (Eterna round: R96, puzzle: Same State NG 2) | – | – | – | 8.9 nM | 9.13 nM | 10.8 nM |
| UGUACCUUCACAGGAUAUCAUGCGAAAAUUGCGUGAGAAGGGUGAAUACUGUCUUUCUAAGAGCACAUGAGGAUCACCCAUGUA [SameState NG1 #59] (Eterna round: R96, puzzle: Same State NG 1) | – | – | – | 195 nM | 206 nM | 278 nM |
| GAUAGACAUGAGGAUCACCCAUGUGACAAAACCACAGGAUAUCAUGCAGGCGUAACUGCAUGAGAAGGGUGAGACU [Quanve] (puzzle: Same State 1) | 61.1 nM | 20.6 nM | 35.8 nM | – | – | – |
| CCGAUCUACCGAAAGGUAGAUGGGCUUGUACAUGAGGAUCACCCAUGUCAGUACAAGCUUUUUGCUCCUCUUAUCCU [salish99-hsa-208a-40] (Eterna round: R96, puzzle: Sensor for hsa-mir-208a) | – | – | – | 41.8 nM | 14 nM | 42.7 nM |
| CUUUUUCCUUUUACAUGAGGAUCACCCAUGUUUUCAUAUUGAGAGGAUAUCGUAUUUGGAAUUUUCGAGAAGGCUCAUUUGUAU [JR_SSNG3_Sub075] (Eterna round: R96, puzzle: Same State NG 3) | – | – | – | 39.4 nM | 25.5 nM | 28.9 nM |
